Source: the supplement of paper PMC5998384

Experiments:
HeLa Kyoto [1] = experiment: thermal stability score vs G1/S (z-score of summed log2 fold changes over temperatures); higher = more thermally stable than in G1/S
HeLa Kyoto [2] = experiment: solubility in G1/S (NP-40 vs SDS abundance) (log2 ratio); higher = more soluble; conditions: cell cycle stage: G1/S
HeLa Kyoto [3] = experiment: solubility change mitosis vs G1/S (difference of NP-40 vs SDS log2 ratios) (log2 ratio difference); higher = more soluble in mitosis
HeLa Kyoto [4] = experiment: melting temperature (median over replicates), in situ; higher = more thermally stable
[5] = cell cycle stage: early G1 (4.5 h after nocodazole release)
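Throughout, for melting temperature (median over replicates), in situ: HeLa Kyoto cells synchronized by double thymidine or nocodazole block, proteins quantified by TMT10plex mass spectrometry, three independent biological replicates.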
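Throughout, for solubility change mitosis vs G1/S (difference of NP-40 vs SDS log2 ratios): synchronized HeLa Kyoto cells (double thymidine block for G1/S, nocodazole release for mitosis), protein amounts in NP-40 versus SDS lysates quantified by mass spectrometry, three biological replicates.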
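Throughout, for solubility in G1/S (NP-40 vs SDS abundance): HeLa Kyoto cells arrested at G1/S by double thymidine block, proteins quantified by TMT10plex mass spectrometry in mild NP-40 versus SDS extracts, three biological replicates.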
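Throughout, for thermal stability score vs G1/S (z-score of summed log2 fold changes over temperatures): synchronized HeLa Kyoto cells, proteins quantified by TMT10plex mass spectrometry, three biological replicates, mitosis taken 0.5 h after nocodazole release, G1/S directly after double thymidine block.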

Row | Sequence | thermal stability score (HeLa Kyoto [1]; [5]) | thermal stability score (HeLa Kyoto [1]; cell cycle stage: mitosis) | solubility in G1/S (log2) (HeLa Kyoto [2]) | solubility change mitosis (log2) (HeLa Kyoto [3]) | melting temperature (HeLa Kyoto [4]; cell cycle stage: G1/S) | melting temperature (HeLa Kyoto [4]; cell cycle stage: mitosis)
1 | MAGRRVNVNVGVLGHIDSGKTALARALSTTASTAAFDKQPQSRERGITLDLGFSCFSVPLPARLRSSLPEFQAAPEAEPEPGEPLLQVTLVDCPGHASLIRTIIGGAQIIDLMMLVIDVTKGMQTQSAECLVIGQIACQKLVVVLNKIDLLPEGKRQAAIDKMTKKMQKTLENTKFRGAPIIPVAAKPGGPEAPETEAPQGIPELIELLTSQISIPTRDPSGPFLMSVDHCFSIKGQGTVMTGTILSGSISLGDSVEIPALKVVKKVKSMQMFHMPITSAMQGDRLGICVTQFDPKLLERGLVCAPESLHTVHAALISVEKIPYFRGPLQTKAKFHITVGHETVMGRLMFFSPAPDNFDQEPILDSFNFSQEYLFQEQYLSKDLTPAVTDNDEADKKAGQATEGHCPRQQWALVEFEKPVTCPRLCLVIGSRLDADIHTNTCRLAFHGILLHGLEDRNYADSFLPRLKVYKLKHKHGLVERAMDDYSVIGRSLFKKETNIQLFVGLKVHLSTGELGIIDSAFGQSGKFKIHIPGGLSPESKKILTPALKKRARAGRGEATRQEESAERSEPSQHVVLSLTFKRYVFDTHKRMVQSP [EEFSEC] | 2.19 | 3.12 | -0.248 | 0.119 | 49.3 °C | 51.2 °C
2 | MKGMSHEPKSPSLGMLSTATRTTATVNPLTPSPLNGALVPSGSPATSSALSAQAAPSSSFAAALRKLAKQAEEPRGSSLSSESSPVSSPATNHSSPASTPKRVPMGPIIVPPGGHSVPSTPPVVTIAPTKTVNGVWRSESRQDAGSRSSSGGRERLIVEPPLPQEKAGGPAIPSHLLSTPYPFGLSPSSVVQDSRFPPLNLQRPVHHVVPPSTVTEDYLRSFRPYHTTDDLRMSSLPPLGLDPATAAAYYHPSYLAPHPFPHPAFRMDDSYCLSALRSPFYPIPTPGSLPPLHPSAMHLHLSGVRYPPELSHSSLAALHSERMSGLSAERLQMDEELRREREREREREREREADREREKEREREREKEREQEKEREREKERERELERQREQRAREKELLAAKALEPSFLPVAELHGLRGHATEERGKPSEQLTPTRAEKLKDAGLQAPKPVQHPLHPVPTPHHTVPSLISNHGIFSLPSSSAATALLIQRTNEEEKWLARQRRLRQEKEDRQSQVSEFRQQVLEQHLDMGRPPVPAEAEHRPESTTRPGPNRHEPGGRDPPQHFGGPPPLISPKPQLHAAPTALWNPVSLMDNTLETRRAESHSLHSHPAAFEPSRQAAVPLVKVERVFCPEKAEEGPRKREPAPLDKYQPPPPPPREGGSLEHQPFLPGPGPFLAELEKSTQTILGQQRASLPQAATFGELSGPLKPGSPYRPPVPRAPDPAYIYDEFLQQRRRLVSKLDLEERRRREAQEKGYYYDLDDSYDESDEEEVRAHLRCVAEQPPLKLDTSSEKLEFLQLFGLTTQQQKEELVAQKRRKRRRMLRERSPSPPTIQSKRQTPSPRLALSTRYSPDEMNNSPNFEEKKKFLTIFNLTHISAEKRKDKERLVEMLRAMKQKALSAAVADSLTNSPRDSPAVSLSEPATQQASLDVEKPVGVAASLSDIPKAAEPGKLEQVRPQELSRVQELAPASGEKARLSEAPGGKKSLSMLHYIRGAAPKDIPVPLSHSTNGKSKPWEPFVAEEFAHQFHESVLQSTQKALQKHKGSVAVLSAEQNHKVDTSVHYNIPELQSSSRAPPPQHNGQQEPPTARKGPPTQELDRDSEEEEEEDDEDGEDEEEVPKRKWQGIEAVFEAYQEHIEEQNLERQVLQTQCRRLEARHYSLSLTAEQLSHSVAELRSQKQKMVSERERLQAELDHLRKCLALPAMHWPRGYLKGYPR [GSE1] | -0.121 | 0.454 | 0.0704 | 0.0661 | 50.8 °C | 49.9 °C
3 | MAAAVPQRAWTVEQLRSEQLPKKDIIKFLQEHGSDSFLAEHKLLGNIKNVAKTANKDHLVTAYNHLFETKRFKGTESISKVSEQVKNVKLNEDKPKETKSEETLDEGPPKYTKSVLKKGDKTNFPKKGDVVHCWYTGTLQDGTVFDTNIQTSAKKKKNAKPLSFKVGVGKVIRGWDEALLTMSKGEKARLEIEPEWAYGKKGQPDAKIPPNAKLTFEVELVDID [FKBP3] | 0.0401 | -2.71 | 0.57 | 0.226 | 54.2 °C | 54.4 °C
4 | MRVESGSAQERGILLESLSTLLEKTTASHEGRAPGNRELTDLLPPEVCSLLNPAAIYANNEISLRDVEVYGFDYDYTLAQYADALHPEIFSTARDILIEHYKYPEGIRKYDYNPSFAIRGLHYDIQKSLLMKIDAFHYVQLGTAYRGLQPVPDEEVIELYGGTQHIPLYQMSGFYGKGPSIKQFMDIFSLPEMALLSCVVDYFLGHSLEFDQAHLYKDVTDAIRDVHVKGLMYQWIEQDMEKYILRGDETFAVLSRLVAHGKQLFLITNSPFSFVDKGMRHMVGPDWRQLFDVVIVQADKPSFFTDRRKPFRKLDEKGSLQWDRITRLEKGKIYRQGNLFDFLRLTEWRGPRVLYFGDHLYSDLADLMLRHGWRTGAIIPELEREIRIINTEQYMHSLTWQQALTGLLERMQTYQDAESRQVLAAWMKERQELRCITKALFNAQFGSIFRTFHNPTYFSRRLVRFSDLYMASLSCLLNYRVDFTFYPRRTPLQHEAPLWMDQLCTGCMKTPFLGDMAHIR [NT5DC2] | -0.133 | 0.934 | -0.284 | -0.0879 | 53.1 °C | 52.6 °C
5 | MPAERKKPASMEEKDSLPNNKEKDCSERRTVSSKERPKDDIKLTAKKEVSKAPEDKKKRLEDDKRKKEDKERKKKDEEKVKAEEESKKKEEEEKKKHQEEERKKQEEQAKRQQEEEAAAQMKEKEESIQLHQEAWERHHLRKELRSKNQNAPDSRPEENFFSRLDSSLKKNTAFVKKLKTITEQQRDSLSHDFNGLNLSKYIAEAVASIVEAKLKISDVNCAVHLCSLFHQRYADFAPSLLQVWKKHFEARKEEKTPNITKLRTDLRFIAELTIVGIFTDKEGLSLIYEQLKNIINADRESHTHVSVVISFCRHCGDDIAGLVPRKVKSAAEKFNLSFPPSEIISPEKQQPFQNLLKEYFTSLTKHLKRDHRELQNTERQNRRILHSKGELSEDRHKQYEEFAMSYQKLLANSQSLADLLDENMPDLPQDKPTPEEHGPGIDIFTPGKPGEYDLEGGIWEDEDARNFYENLIDLKAFVPAILFKDNEKSCQNKESNKDDTKEAKESKENKEVSSPDDLELELENLEINDDTLELEGGDEAEDLTKKLLDEQEQEDEEASTGSHLKLIVDAFLQQLPNCVNRDLIDKAAMDFCMNMNTKANRKKLVRALFIVPRQRLDLLPFYARLVATLHPCMSDVAEDLCSMLRGDFRFHVRKKDQINIETKNKTVRFIGELTKFKMFTKNDTLHCLKMLLSDFSHHHIEMACTLLETCGRFLFRSPESHLRTSVLLEQMMRKKQAMHLDARYVTMVENAYYYCNPPPAEKTVKKKRPPLQEYVRKLLYKDLSKVTTEKVLRQMRKLPWQDQEVKDYVICCMINIWNVKYNSIHCVANLLAGLVLYQEDVGIHVVDGVLEDIRLGMEVNQPKFNQRRISSAKFLGELYNYRMVESAVIFRTLYSFTSFGVNPDGSPSSLDPPEHLFRIRLVCTILDTCGQYFDRGSSKRKLDCFLVYFQRYVWWKKSLEVWTKDHPFPIDIDYMISDTLELLRPKIKLCNSLEESIRQVQDLEREFLIKLGLVNDKDSKDSMTEGENLEEDEEEEEGGAETEEQSGNESEVNEPEEEEGSDNDDDEGEEEEEENTDYLTDSNKENETDEENTEVMIKGGGLKHVPCVEDEDFIQALDKMMLENLQQRSGESVKVHQLDVAIPLHLKSQLRKGPPLGGGEGEAESADTMPFVMLTRKGNKQQFKILNVPMSSQLAANHWNQQQAEQEERMRMKKLTLDINERQEQEDYQEMLQSLAQRPAPANTNRERRPRYQHPKGAPNADLIFKTGGRRR [UPF2] | -0.603 | -0.161 | -0.245 | -0.109 | 49.6 °C | 49.7 °C
6 | MSEQSICQARAAVMVYDDANKKWVPAGGSTGFSRVHIYHHTGNNTFRVVGRKIQDHQVVINCAIPKGLKYNQATQTFHQWRDARQVYGLNFGSKEDANVFASAMMHALEVLNSQETGPTLPRQNSQLPAQVQNGPSQEELEIQRRQLQEQQRQKELERERLERERMERERLERERLERERLERERLEQEQLERERQERERQERLERQERLERQERLERQERLDRERQERQERERLERLERERQERERQEQLEREQLEWERERRISSAAAPASVETPLNSVLGDSSASEPGLQAASQPAETPSQQGIVLGPLAPPPPPPLPPGPAQASVALPPPPGPPPPPPLPSTGPPPPPPPPPLPNQVPPPPPPPPAPPLPASGFFLASMSEDNRPLTGLAAAIAGAKLRKVSRMEDTSFPSGGNAIGVNSASSKTDTGRGNGPLPLGGSGLMEEMSALLARRRRIAEKGSTIETEQKEDKGEDSEPVTSKASSTSTPEPTRKPWERTNTMNGSKSPVISRRDSPRKNQIVFDNRSYDSLHRPKSTPLSQPSANGVQTEGLDYDRLKQDILDEMRKELTKLKEELIDAIRQELSKSNTA [ENAH] | 2.28 | 8.8 | 0.13 | 0.0923 | 51.7 °C | 51.9 °C
7 | MADDIDIEAMLEAPYKKDENKLSSANGHEERSKKRKKSKSRSRSHERKRSKSKERKRSRDRERKKSKSRERKRSRSKERRRSRSRSRDRRFRGRYRSPYSGPKFNSAIRGKIGLPHSIKLSRRRSRSKSPFRKDKSPVREPIDNLTPEERDARTVFCMQLAARIRPRDLEEFFSTVGKVRDVRMISDRNSRRSKGIAYVEFVDVSSVPLAIGLTGQRVLGVPIIVQASQAEKNRAAAMANNLQKGSAGPMRLYVGSLHFNITEDMLRGIFEPFGRIESIQLMMDSETGRSKGYGFITFSDSECAKKALEQLNGFELAGRPMKVGHVTERTDASSASSFLDSDELERTGIDLGTTGRLQLMARLAEGTGLQIPPAAQQALQMSGSLAFGAVAEFSFVIDLQTRLSQQTEASALAAAASVQPLATQCFQLSNMFNPQTEEEVGWDTEIKDDVIEECNKHGGVIHIYVDKNSAQGNVYVKCPSIAAAIAAVNALHGRWFAGKMITAAYVPLPTYHNLFPDSMTATQLLVPSRR [RBM39] | 1.15 | 5.82 | -1.07 | 0.531 | 47.2 °C | 49.3 °C
8 | MADISLDELIRKRGAAAKGRLNARPGVGGVRSRVGIQQGLLSQSTRTATFQQRFDARQKIGLSDARLKLGVKDAREKLLQKDARFRIKGKVQDAREMLNSRKQQTTVPQKPRQVADAREKISLKRSSPAAFINPPIGTVTPALKLTKTIQVPQQKAMAPLHPHPAGMRINVVNNHQAKQNLYDLDEDDDGIASVPTKQMKFAASGGFLHHMAGLSSSKLSMSKALPLTKVVQNDAYTAPALPSSIRTKALTNMSRTLVNKEEPPKELPAAEPVLSPLEGTKMTVNNLHPRVTEEDIVELFCVCGALKRARLVHPGVAEVVFVKKDDAITAYKKYNNRCLDGQPMKCNLHMNGNVITSDQPILLRLSDSPSMKKESELPRRVNSASSSNPPAEVDPDTILKALFKSSGASVTTQPTEFKIKL [POLDIP3] | -0.794 | -0.0102 | -0.386 | 0.732 | 49.3 °C | 49.9 °C
9 | MFIKGRAPRAPPRERRRATRGGLRQVVAPPRALGSTSRPHFRRASVCRRRCRKSGGLLAASRKMAAAAVNGAAGFSSSGPAATSGAVLQAATGMYEQLKGEWNRKSPNLSKCGEELGRLKLVLLELNFLPTTGTKLTKQQLILARDILEIGAQWSILRKDIPSFERYMAQLKCYYFDYKEQLPESAYMHQLLGLNLLFLLSQNRVAEFHTELERLPAKDIQTNVYIKHPVSLEQYLMEGSYNKVFLAKGNIPAESYTFFIDILLDTIRDEIAGCIEKAYEKILFTEATRILFFNTPKKMTDYAKKRGWVLGPNNYYSFASQQQKPEDTTIPSTELAKQVIEYARQLEMIV [PSMD8] | -1.02 | -0.0502 | 0.278 | 0.0108 | 53.4 °C | 54.5 °C
